{
  "source": "paper PMC5383250",
  "key": {"[1]": {"target": "E. faecalis RNase J1 (Enterococcus faecalis (strain OG1RF))", "experiment": "SPR; Biacore T100; E. faecalis RNase J1 immobilized on a CM5 sensor surface; J2 proteins 400 to 50 nM in duplicate; fitted to the 1:1 binding model"}, "[2]": {"target": "RNase J2 (Bacillus subtilis) (UniProt O31760)", "conditions": "cited from earlier work"}},
  "data": [
    {"substance": "E. faecalis RNase J2 H69A (enzyme)", "values": [
      {"measurement": "Kd", "setting": "[1]", "value": 81, "unit": "nM"}
    ]},
    {"substance": "E. faecalis RNase J2 H71A (enzyme)", "values": [
      {"measurement": "Kd", "setting": "[1]", "value": 89, "unit": "nM"}
    ]},
    {"substance": "RNase J1 (from UniProt Q45493)", "values": [
      {"measurement": "Kd", "setting": "[2]", "value": 80, "unit": "nM"}
    ]}
  ]
}
